According to patent publication US20220106398A1 (IGM BIOSCIENCES, published 2022):

T1: human His6-GITR (human, UniProt Q9Y5U5 26-162)
T1 construct: His6-tagged recombinant protein; also called hGITR-His; human GITR-His
T1 sequence: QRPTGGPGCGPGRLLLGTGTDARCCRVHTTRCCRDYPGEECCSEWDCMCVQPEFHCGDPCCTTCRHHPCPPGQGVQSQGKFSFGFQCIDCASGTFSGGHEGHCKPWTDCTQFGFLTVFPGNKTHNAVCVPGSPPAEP

T2: mouse His6-GITR (mouse, UniProt O35714 20-153)
T2 construct: His6-tagged recombinant protein; also called mGITR-His; mouse GITR-His
T2 sequence: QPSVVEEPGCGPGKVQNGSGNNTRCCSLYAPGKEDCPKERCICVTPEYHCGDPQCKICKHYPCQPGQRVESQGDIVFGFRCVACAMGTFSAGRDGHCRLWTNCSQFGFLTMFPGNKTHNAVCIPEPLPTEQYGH

T3: cynomolgus monkey His6-GITR (cynomolgus monkey)
T3 construct: His6-tagged recombinant protein; also called cGITR-His; cyno GITR-His
T3 chain: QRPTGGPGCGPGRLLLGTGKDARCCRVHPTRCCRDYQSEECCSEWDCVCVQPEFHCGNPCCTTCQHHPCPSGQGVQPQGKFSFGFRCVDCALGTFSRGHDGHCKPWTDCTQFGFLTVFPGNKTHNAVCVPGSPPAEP


Experiments:
human His6-GITR [1] = target: T1, human His6-GITR; experiment: CARTERRA LSA, scFv periplasmic extract
human His6-GITR [2] = target: T1, human His6-GITR; experiment: ELISA, scFv periplasmic extract on coated His6-GITR
Procedure: (§1) The SuperHuman-2.0 scFv Antibody Library (available from Distributed Bio, South San Francisco, Calif.) was used to perform selection with human, cynomolgus or mouse GITR proteins. Selected phage clones from overnight growth were inoculated into wells in 96 well deep well plates containing 1 mL of medium. scFv expression was induced by addition of IPTG (Teknova) to a final concentration of 1 mM. Plates were grown overnight after induction. To prepare periplasmic extracts (PPE), the plates containing the phage clones were centrifuged at 2500 rpm for 10 min, the supernatant discarded and then pellets treated with 75 μL of cold periplasmic extract buffer with appropriate concentration of protease inhibitors (Complete Mini, EDTA-free -Roche Applied Biosciences—Cat No 1836170). After shaking at room temperature for 10 min, 225 μL of cold ddH2O with added protease inhibitor (1 tablet/50 mL) was added per well and mixed by pipetting up and down. PPE extraction was completed by incubation at room temperature for an additional 1 hr. The plates were then centrifuged at 4000 rpm for 20 minutes and 200 μL of PPE supernatant was collected from each well and transferred to a new plate which was then blocked with equal volume of 4% milk (2% final) to prepare blocked PPE extracts. In the meantime, Maxisorp plates (Nunc 442404) coated with relevant antigen (human, mouse or cynomolgus monkey His6-GITR) at 50 μl/well of 1 μg/mL antigen or 2% BSA in PBS as control were prepared for ELISA analyses. Next, 50 μL of each blocked PPE extract was transferred to the pre-blocked ELISA plates coated with the relevant antigens. After incubation and washing 3× with PBS, 50 μL of anti-V5 tag antibody (tag included in the phage display constructs, Invitrogen Cat No R960-25) at 1:5000 dilution in 2% milk was added and the plates were incubated for 1 hr. […] After further washing 3× with PBST, 50 μl/well of TMB substrate was added and the plates were developed until positive controls were visible. The reaction was stopped with 50 μl/well of 2N H2SO4. Plates were read at 450 nm to determine ELISA signal from bound PPE derived scFv.

mouse His6-GITR = target: T2, mouse His6-GITR; experiment: as above
Procedure: as §1

[3] = target: T3, cynomolgus monkey His6-GITR; experiment: as above
Procedure: as §1

Row | Binder | Kd (human His6-GITR [1]) [nM] | hGITR-His/BKG (human His6-GITR [2]) [fold over background] | mGITR-His/BKG (mouse His6-GITR) [fold over background] | cGITR-His/BKG [3] [fold over background]
1 | GITR-Mab-17 scFv (scFv, V domains shown, scFv in periplasmic extract, V5 tag) VH: QVQLVQSGAEVKKPGASVKVSCKASGYTFTSYGISWVRQAPGQGLEWMGWMNPNSGNTGYAQKFQGRVTMTRDTSTSTVYMELSSLRSEDTAVYYCARLGLWFGEYQYYFDYWGQGTLVTVSS VL: not shown | 24.5 | 18.9 | 1.1 | 
2 | GITR-Mab-3 scFv (scFv, V domains shown, scFv in periplasmic extract, V5 tag) VH: QVQLVQSGAEVKKPGASVKVSCKASGYTFTSYDINWVRQAPGQGLEWMGWISGYNGNTNYAQKFQGRVTMTRDTSTSTVYMELSSLRSEDTAVYYCARSHEYYYYYGMDVWGQGTLVTVSS VL: EIVMTQSPATLSVSPGERATLSCRASQSVSSSYLAWYQQKPGQAPRLLIYGASTRATGIPARFSGSGSGTEFTLTISSLQSEDFAVYYCQQYYTTPFTFGPGTKVDIK | 10.5 | 12.1 | 1 | 11.1
3 | GITR-Mab-8 scFv (scFv, V domains shown, scFv in periplasmic extract, V5 tag) VH: QVQLVQSGAEVKKPGASVKVSCKASGGTFSSYVISWVRQAPGQGLEWMGWMNPGSGNTGYAQKFQGRVTMTRDTSTSTVYMELSSLRSEDTAVYYCITDSEDDYWGQGTLVTVSS VL: not shown | 49.6 | 9.6 | 1.4 | 16.1
4 | GITR-Mab-6 scFv (scFv, V domains shown, scFv in periplasmic extract, V5 tag) VH: QVQLVQSGAEVKKPGASVKVSCKASGYAFTAYYLHWVRQAPGQGLEWMGWMNPNSGNTGYAQKFQGRVTMTRDTSTSTVYMELSSLRSEDTAVYYCAREGWGYYDGGFDPWGQGTLVTVSS VL: not shown | 0.1 | 35.8 | 1 | 7.5
5 | GITR-Mab-5 scFv (scFv, V domains shown, scFv in periplasmic extract, V5 tag) VH: EVQLLESGGGLVQPGGSLRLSCAASGFTFDAYAMHWVRQAPGKGLEWVSAIGTGGDTYYADSVKGRFTISRDNSKNTLYLQMNSLRAEDTAVYYCARDLYGSGSPQYYYYYGMDVWGQGTTVTVSS VL: DIQMTQSPSSLSASVGDRVTITCRASQGIKNDLGWYQQKPGKAPKLLIYAASSLQSGVPSRFSGSGSGTDFTLTISSLQPEDFATYYCQQSYSVPFTFGQGTKVEIK | 8.3 | 16.3 | 1.2 | 8
6 | GITR-Mab-25 scFv (scFv, V domains shown, scFv in periplasmic extract, V5 tag) VH: QVQLVQSGAEVKKPGASVKVSCKASGGTFSSYAISWVRQAPGQGLEWMGWVSGYNGNANYAQKFQGRVTMTRDTSTSTVYMELSSLRSEDTAVYYCARDRVESGYSYHDAFDIWGQGTMVTVSS VL: DIQMTQSPSSLSASVGDRVTITCRTSQSIRRYLNWYQQKPGKAPKLLIYAASSLQSGVPSRFSGSGSGTDFTLTISSLQPEDFATYYCQQSYSIPWTFGPGTKVDIK |  | 22.2 | 1.1 | 1.1
7 | GITR-Mab-26 scFv (scFv, V domains shown, scFv in periplasmic extract, V5 tag) VH: QVQLVQSGAEVKKPGASVKVSCKASGYTFTSYGISWVRQAPGQGLEWMGWMNPNNGNTVYAQKFQGRVTMTRDTSTSTVYMELSSLRSEDTAVYYCAKDSDWYGAFDIWGQGTMVTVSS VL: DIQMTQSPSSLSASVGDRVTITCQASQSISRWLAWYQQKPGKAPKLLIYSASSLQSGVPSRFSGSGSGTDFTLTISSLQPEDFATYYCQQSYSTPWTFGQGTKLEIK |  | 12.7 | 1.1 | 0.8
8 | GITR-Mab-7 scFv (scFv, V domains shown, scFv in periplasmic extract, V5 tag) VH: QVQLVQSGAEVKKPGASVKVSCKASGGTSSTYAVTWVRQAPGQGLEWMGVINPNDGSTTYAQNFQGRVTMTRDTSTSTVYMELSSLRSEDTAVYYCARWTPLFGVVIPDYYYYGMDVWGQGTLVTVSS VL: DIQMTQSPSSLSASVGDRVTITCQASQDISNYLNWYQQKPGKAPKLLIYAASSLQSGVPSRFSGSGSGTDFTLTISSLQPEDFATYYCQQSYSTPPTFGQGTRLEIK | 11.5 | 16.4 | 1 | 9
